Results published in the DeepSol protein solubility set.

Experiment: soluble on expression in E. coli; label from the status in PepcDB or PDB records

Row | Sequence | soluble on expression in E. coli
1 | SLKKKSLKLTALFLALSCFPAFAEQTVDIEVQGIRGFRAVRNTDLNVNLINKEEMDGSERYQHLVTKAVDRGLRVFGYYESSVRFERKQRQGKRDLLIAHVTPGEPTKIAGTDVQIEGEAAQDENFNALRKNLPKDGVLVEHQTYDDYKTAISRLALNRGYFDGNFKISRLEISPETHQAWWRMLFDSGVRYHYGNITFSHSQIRDDYLNNILNIKSGDPYLMNNLSDLTSDFPSSNWFSSVLVQPNVNHKSKTVDVEIILYPRKKNAMELGVGFSTDGGVHGQIGWTKPWINSRGHSLRSNLYLSAPKQTLEATYRMPLLKNPLNYYYDFAVGWEGEKENDTNTRVLTLSALRYWNNAHGWQYFGGLRMRYDSFTQADITDKTLLLYPTVGFTRTRLRGGSFATWGDVQKITFDLSKRIWLSESSFIKVQASSAWVRTYAENHRVVARAEIGYLHTKGIEKIPPTLRFFAGGDRSVRGYGYKKIAPKNRNGKLVGGSRLLTTSLEYQYQVYPNWWAATFADSGLAADNYTAKELRYGTGVGVRWASPVGAIKFDIATPIRDKDNSKNIQFYIGLGTEI | soluble
2 | SLKTPGYPDGPIAIYGDNIFLYSEPTAEEAARFDVVINCAREVSNPFEINKATRRPMSIAEPDTAVSTASFMTAWEFPQGDDSAETPTTPKALQFQEPEYIHIPWDHNTDIAPDLMDLCHVVDDRTKAGKRVLIHCQQGASRSASLIIAYGLFQRPELTVNDAYYAAQAKSQWISPNMKLMYSLQDFQKEVSTKRTAQPSNREG | soluble
3 | SLLCVVGGSMNVSMEASIVESLLQRRCLKESDLYRARQLQAESGVGLLPLLGRLGLVSERDHAEVCAEVMGLLLIQVRELPDTPPEFSAEVHGLSIRFLKQFHVCPLAEHDGVLQLCVADPFDVYAIEALRLATGAVLQLCIGLRSEIDDLVERWYGQGRS | soluble
4 | SLLEIDNQTPLESDFSLLEKIAKFLAPTQIIELVLVSDETMREINRDLRGCDYVTDVLSFPLEAIPHTPLGSVVINAPLAQENALKLGHRLEEEIALLFIHGVLHLLGYDHEKDKGEQRQKESELIKAFNLPLSLIERTQD | soluble
5 | SLMVPVEIRWQQGGSKVYVTGSFTKWRKMIGLIPDSDNNGSFHVKLRLLPGTHRFRFIVDNELRVSDFLPTATDQMGNFVNYIEVRQPEKNPTNEKIRSKEADSMRPPTSDRSSIALQIGKDPDDFGDGYTRFHEDLSPRPPLEYTTDIPAVFTDPSVMERYYYTLDRQQSNTDTSWLTPPQLPPQLENVILNKYYATQDQFNENNSGALPIPNHVVLNHLVTSSIKHNTLCVASIVRYKQKYVTQILYTPI | soluble
6 | SLQLESLISAAPALSQQAVDQEWSYMDFLEHLLHEEKLARHQRKQAMYTRMAAFPAVKTFEEYDFTFATGAPQKQLQSLRSLSFIERNENIVLLGPSGVGKTHLAIAMGYEAVRAGIKVRFTTAADLLLQLSTEQRQGRYKTTLQRGVMAPRLLIIDEIGYLPFSQEEAKLFFQVIAKRYEKSAMILTSNLPFGQWDQTFAGDAALTSAMLDRILHHSHVVQIKGESYRLRQKRKAGVIAEANP | not soluble
7 | SLQSNILAFTPPAPSASMNVNRTAVVSVTTKDSRAIQEIASYTKHGELIKLNASPSVTQLFQQVMQQNLISKGFRVGQLNGSNAWVTVDVREFGTQVEQGNLRYKLNTKIQATVYVQGAKGSYNKSFNVTHSQEGVFNAGNDEIHKVLSQTFNDIVNNIYQDQEVAAAINQYSN | soluble
8 | SLRFLGEKAAAKRQVLNADSVEQSFVGLKQLISCRNWRAAVDLCGRLLTAHGQGYGKSGLLTSHTTDSLQLWFVRLALLVKLGLFQNAEMEFEPFGNLDQPDLYYEYYPHVYPGRRGSMVPFSMRILHAELQQYLGNPQESLDRLHKVKTVCSKILANLEQGLAEDGGMSSVTQEGRQASIRLWRSRLGRVMYSMANCLLLMKDYVLAVEAYHSVIKYYPEQEPQLLSGIGRISLQIGDIKTAEKYFQDVEKVTQKLDGLQGKIMVLMNSAFLHLGQNNFAEAHRFFTEILRMDPRNAVANNNAAVCLLYLGKLKDSLRQLEAMVQQDPRHYLHESVLFNLTTMYELESSRSMQKKQALLEAVAGKEGDSFNTQCLKLA | not soluble
9 | SLRILPQEPVIREEQNWLTILKNAISDPKLLLKALNLPEDDFEQSIAARKLFSLRVPQPFIDKIEKGNPQDPLFLQVMCSDLEFVQAEGFSTDPLEEKNANAVPNILHKYRNRLLFMAKGGCAVNCRYCFRRHFPYDENPGNKKSWQLALDYIAAHSEIEEVIFSGGDPLMAKDHELAWLIKHLENIPHLQRLRIHTRLPVVIPQRITDEFCTLLAETRLQTVMVTHINHPNEIDQIFAHAMQKLNAVNVTLLNQSVLLKGVNDDAQILKILSDKLFQTGILPYYLHLLDKVQGASHFLISDIEAMQIYKTLQSLTSGYLVPKLAREIAGEPNKTLYAE | soluble
10 | SLSAALRTLKHVLYYSRQCLMVSRNLGSVGYDPNEKTFDKILVANRGEIACRVIRTCKKMGIKTVAIHSDVDASSVHVKMADEAVCVGPAPTSKSYLNMDAIMEAIKKTRAQAVHPGYGFLSENKEFARCLAAEDVVFIGPDTHAIQAMGDKIESKLLAKKAEVNTIPGFDGVVKDAEEAVRIAREIGYPVMIKASAGGGGKGMRIAWDDEETRDGFRLSSQEAASSFGDDRLLIEKFIDNPRHIEIQVLGDKHGNALWLNERECSIQRRNQKVVEEAPSIFLDAETRRAMGEQAVALARAVKYSSAGTVEFLVDSKKNFYFLEMNTRLQVEHPVTECITGLDLVQEMIRVAKGYPLRHKQADIRINGWAVECRVYAEDPYKSFGLPSIGRLSQYQEPLHLPGVRVDSGIQPGSDISIYYDPMISKLITYGSDRTEALKRMADALDNYVIRGVTHNIALLREVIINSRFVKGDISTKFLSDVYPDGFKGHMLTKSEKNQLLAIASSLFVAFQLRAQHFQENSRMPVIKPDIANWELSVKLHDKVHTVVASNNGSVFSVEVDGSKLNVTSTWNLASPLLSVSVDGTQRTVQCLSREAGGNMSIQFLGTVYKVNILTRLAAELNKFMLEKVTEDTSSVLRSPMPGVVVAVSVKPGDAVAEGQEICVIEAMKMQNSMTAGKTGTVKSVHCQAGDTVGEGDLLVELE | soluble
11 | SLSGGKYVDSEGHLYTVPIREQGNIYKPNNKAMADELSEKQVYDAHTKEIDLVNRDPKHLNDDVVKIDFEDVIAEPEGTHSFDGIWKASFSTFTVTKEG | soluble
12 | SLTEKDVLSQEEIDALLDSVDESIDGETNDEELNSSDQPARKKPEDTTGQELNSTFDSDIKVAEEGVKTLNFTGQERIVKGQLPVLDKIYDRAVRLFAADIYHLTARDFEIKQDPLLITKHKEFMRSLPNPSLIGIYKFKPLRGKGIILFDSTFVYDLVDYYFGGNSQFGAQKDKTDFTATELRVMEVVTKKLVTNLTHAWEPIIQLDVTKFNDETNPQLVNIAEPEEMLLVARFLLNFGKETGAFYFILPYSMLEPIKQQLELGASRPDDEIDPNWINSLKEELMDVELTVSASMAETVSTLGQVMAWKVGDFVPLEINEEVTLDIEGTPSFTATLGSANEKRALKIIKIIRY | soluble
13 | SLTGQLHPAVRVADLLQHINQMKTAEGYGFKQEYESFFEGWDATKKKDKVKGSRQEPMPAYDRHRVKLHPMLGDPNADYINANYIDGYHRSNHFIATQGPKPEMVYDFWRMVWQEHCSSIVMITKLVEVGRVKCSRYWPEDSDTYGDIKIMLVKTETLAEYVVRTFALERRGYSARHEVRQFHFTAWPEHGVPYHATGLLAFIRRVKASTPPDAGPIVIHCSAGTGRTGCYIVLDVMLDMAECEGVVDIYNCVKTLCSRRVNMIQTEEQYIFIHDAILEACLCGETTIPVSEFKATYKEMIRIDPQSNSSQLREEFQTLNSVTPPLDVEECSIALLPRNRDKNRSMDVLPPDRCLPFLISTDGDSNNYINAALTDSYTRSAAFIVTLHPLQSTTPDFWRLVYDYGCTSIVMLNQLNQSNSAWPCLQYWPEPGRQQYGLMEVEFMSGTADEDLVARVFRVQNISRLQEGHLLVRHFQFLRWSAYRDTPDSKKAFLHLLAEVDKWQAESGDGRTIVHCLNGGGRSGTFCACATVLEMIRCHNLVDVFFAAKTLRNYKPNMVETMDQYHFCYDVALEYLEGLESR | not soluble
14 | SLVKSTSCTTIDFMNMSQLTERTFTSSESLSSLSLFLSLARGQCRPGKFWHRRSFRQKFLLRSLIMPRLSVEWMNELSHWPNLNVLLTRQPRLPVRLHRPYLAANLSRKQLLEALRYHYALLRGCMSAEEFSLYLNTPGLQLAKLEGKNGEQFTLELTMMISMDKEGDSTILFRNSEGIPLAEITFTLCEYQGKRTMFIGGLQGAKWEIPHQEIQNATKACHGLFPKRLVMEAACLFAQRLQVEQIIAVSNETHIYRSLRYRDKEGKIHADYNAFWESVGGVCDAERHYRLPAQIARKEIAEIASKKRAEYRRRYEMLDAIQPQMATMFRG | not soluble
15 | SLVTSLKGLWTLRAFGRQPYFETSGGGSGGGSGGGSGGGSGGGEYNLTTTEVVMENVTAFWEEGGTPVLKDINFKIERGQLLAVAGSTGAGKTSLLMMIMGELEPSEGKIKHSGRISFCSQFSWIMPGTIKENIIFGVSYDEYRYRSVIKACQLEEDISKFAEKDNIVLGEGGITLSGGQRARISLARAVYKDADLYLLDSPFGYLDVLTEKEIFESCVCKLMANKTRILVTSKMEHLKKADKILILHEGSSYFYGTFSELQNLQPDFSSKLMG | soluble
16 | SLVVNRSWMRCWSITALRADHSVKICLIDETGAGDGALSVLAARWGLEHDEDNLMALVLTPEHLELRKRDEPKLGGIFVDFVGGAMAHRRKFGGGRGEAVAKAVGIKGDYLPDVVDATAGLGRDAFVLASVGCRVRMLERNPVVAALLDDGLARGYADAEIGGWLQERLQLIHASSLTALTDITPRPQVVYLDPMFPHKQKSALVKKEMRVFQSLVGPDLDADGLLEPARLLATKRVVVKRPDYAPPLANVATPNAVVTKGHRFDIYAGTPV | soluble
17 | SMANHLVKPDNRNCKRPRELESPVPDSPQLSSLGKSDSSFSEISGLFYKDEALEKDLNDVSKEINLMLSTYAKLLSERAAVDASYIDEIDELFKEANAIENFLIQKREFLRQRFTVIANTLHR | soluble
18 | SMDEVVRIHSSSGTTGKPTVVGYTKHDMEVWGEVMARTFTLAGVTAKDVVHNAYGYGLFTGGLGFHDGAQRVGATIIPASGGFTNRQIMLLRDFKATALTCTPSFAMHLAEVAKSEGFDPRKDFHLKAGIFGAEPSSEGLQRAVADTWGIAYHEIYGLSELIGPGVSCSCEQ | not soluble
19 | SMGAEPGRPARLDQLLDMPAAGLAVQLRHAWNPEDRSLNVFVKDDDRLTFHRHPVAQSTDGIRGKVGHARGLHAWQINWPARQRGTHAVVGVATARAPLHSVGYTALVGSDAESWGWDLGRSRLYHDGKNQPGVAYPAFLGPDEAFALPDSLLVVLDMDEGTLSFIVDGQYLGVAFRGLKGKKLYPVVSAVWGHCEVTMRYINGLDPE | soluble
20 | SMGKEKSKEPRDPDQLYSTLKSILQQVKSHQSAWPFMEPVKRTEAPGYYEVIRFPMDLKTMSERLKNRYYVSKKLFMADLQRVFTNCKEYNPPESEYYKCANILEKFFFSKIKEAGLID | soluble
21 | SMPKDVGILALEVYFPAQYVDQTDLEKYNNVEAGKYTVGLGQTRMGFCSVQEDINSLCLTVVQRLMERIQLPWDSVGRLEVGTETIIDKSKAVKTVLMELFQDSGNTDIEGIDTTNACYGGTASLFNAANWMESSSWDGRYAMVVCGDIAVYPSGNARPTGGAGAVAMLIGPKAPLALERGLRGTHMENVYDFYKPNLASEYPIVDGKLSIQCYLRALDRCYTSYRKKIQNQWKQAGSDRPFTLDDLQYMIFHTPFCKMVQKSLARLMFNDFLSASSDTQTSLYKGLEAFGGLKLEDTYTNKDLDKALLKASQDMFDKKTKASLYLSTHNGNMYTSSLYGCLASLLSHHSAQELAGSRIGAFSYGSGLAASFFSFRVSQDAAPGSPLDKLVSSTSDLPKRLASRKCVSPEEFTEIMNQREQFYHKVNFSPPGDTNSLFPGTWYLERVDEQHRRKYARRPV | soluble
